In a protein production outcome set (Wang et al. 2014):

assay: label from the status in PepcDB records

Row | Sequence | protein production
1 | RIPDIEEVELAEAPADKVLPDGFYVTTNHPTFVRYGGEWLPVEDISMDRVIVIRDGRAYCIPIDEVVRGDRVVVGEKGVRVVPPERPRKSTVFEFMGGRVSSERPTERMIEAIAREIYELKLKGGKIAVVAGPAVDHTSARNALAALIRDGYVDLLLSGNALAVHDIEISIFGTSLGMDICKGRPVPGGNRHHLYTISKVIAAGGIKKAIEKGIIKDGIMYECVKNNVPFILAGSIRDDGPLPEVITDVMVAKKKMKEALRGINMVIMLATMLHSIAVGNLLPSYVKTICVDMNPSTVTKLMDRGTHQAIGVVTDVGLFLPLLYLKIKE | failed
2 | RIVGELEQMVSEDVPLDHRVHARIIGARGKAIRKIMDEFKVDIRFPQSGAPDPNCVTVTGLPENVEEAIDHILNLEEEYLAD | not failed
3 | RLAHVSAASRELARALEPDAVMAVLAGILRERLGFYRVTVALVREGALVGHLTRRGEDLYWTEGRSRIRLPVATSPDPMAQAVRERRTRIVPREALPPHLAEGVGASVAYVPVLVEEEALGCVAVDHGPGGPPVTEEEVEYVELLAGVAGVALRNAQLYRERTALSLALAAERKRLS | failed
4 | RLKLLYDAGLGIGTTLDVLRTADELAQVAVPRFADFVTVDLADAVLHGEEPAPTATDLRRTAVCGIRDDHPLYELGQLIDFLPSTPQARGYGSGYSELVTDLSTATGWHAQDPERTKAIIDYGIHSLIAAPIQARGVVLGMANFWRSKQHEPFVEEEMSLAEELVARAAVSIDNARRYTREHALAVTLQRSL | not failed
5 | RLNFLDTLGRAVTEATDPDQIMAITTRMLVEHLGLSSCAYAVMDPDEDGFTICGDAVTPGSPRLVGHYHLHDFGRLAVSRLRSGLALVINDNLRELAADEAATYQAIGITATICMPLIKGGRLTALMAIHDRVPRAWTDYEQTLISEVTERCWAHIQRAQAHAEVREAMAALEALNTTLE | failed
6 | RLQPIIVPGWQGSGPGHWQTHWSRTLPHAVRLQQRDWHQPQRAEWVAALAAAVDAAPTPVLLVAHSLGCLVSAALPIALRAKVAGALLVAPADVERPGAPAAIAAFGPVPRQSLPYQSVVIASDDDPYCRLERARQFAQDWGSRLVVLQGAGHINADSQLGAWPQGLKQLAALRRRACW | failed
7 | RLRQPMLRTGDQWQPIEWQAAFDLVAERLYAIQQQHGQNAVAVYQGNPSVHNYGLMTHSNYFLGLLKTRNRFSATSVDQLPHHLTSFLMYGHGMLLPIPDIDHTDFMLILGGNPLASNGSIMTVPDVEKRLKAIQQRGGKLVVVDPRRSETAAIADQHVFVRPGGDAALLFGLLNTLFEEGLTRESHLPVDGLDHVRHSIAGFSAEAMSPRCGIAAVQIRQLARDFAGADTALCYGRMGVSTQAFGTLCHWLAQLINLVTGNLDRVGGTLCTEPAVDLVSSTSGGHFNVWQSRVSGLPEYGGELPVSALAEEMLVEGQGQVRALVTVAGNPVLSTPNGRQLDQALEGLEFMLSIDLYINETTRHADLILPSTSALENDHYDTTFNTLAVRNVTRFNRAIFDKPEGALHDWEIFVGLAASFAAKAQRELKPTVPPAQMIDRVLRAGRYGAASPHNLSLETLASHPHGMDLGALKPNLTDRLKTANGRIQAAP | failed
8 | RNFLNNQQIRAQVHRRILEQLPTEGEIVLLGHSLGSVIAADLLRRLPPELTVKGFVTIGSPLANGQFNVDDLFKLLRTPLSNVSWWVNFWSGS | failed
9 | RNTNPGIKCFAVRSLGWVEMTEEELAPGRSSVAVNNCIRQLSYHKNNLHDPMSGGWGEG | failed
10 | RPSWGYARSMAGRLAGATAVLDVQTGGGEVLDFALEAAGPHRAPLVAATEGWAPNVAQATRLLRPRGVPVVASADDAPLPFADGAFDLVVSRHPVEPHWDEVARVLMPGGTYFAQHVGPASVFELIEYFLGPLPEDSRRHRDPERERADAEAAGLEVVELRAERLRMEFLDIGAVVHFLRKVVWMVPGFTVEAYRDRLRDLHERIEADGPFVAHSSRHLFDVRKP | failed
11 | RQRSLSTSGESLYHVLGLDKNATSDDIKKSYRKLALKYHPDKNPDNPEAADKFKEINNAHAILTDATKRNIYDKYGSLGLYVAEQFGEENVNTYFV | not failed
12 | RQVTDSDETEELIHLLLDNYAEGKIVKLLFMSENATQPVISQVAKENDVMLNVLHGNLTQTQNGAYGTLYVQVLGTEEAIEASLTQLRQLKVETEVLER | not failed
13 | RRKVGVLVDGPNMLRKEFNINLKEIREILSEYGDIKIAKVFLNQYATEKLVEAIENQGFEPIVTSGDVDVRMAVEAMELIYNDSIDAVALVTRDADFKAVLMKAMEMGKETIIIGAEPGFSTALKNSADIAIVLNEDEE | failed
14 | RRLPTVLLKLRMAQHLQAAVAFVEQGHVRVGPDVVTDPAFLVTRSMEDFVTWVDSSKI | not failed
15 | RSRIDTALNRGRCGLWDWDLSRGRIFWSQSMFTILGLESRNDLLTFGEVNALVKGEDIDLFAIADELMAGRVDHIDHSFQMRHAHGHWIWLRMRCELTQEAGATEKHLIGIAVDITEQKSLAERSVEADLRLRDAIETIPEAFVLWDAENRLVLCNSHFQRL | failed
16 | RSRRFAHLQLFAHLELPCWARIRDLLNIGLPIGISILMEGGLFIVTTLLIGRFGTDEIAAHQIALSVAQLCFMIPMGVAEATTVRIGHAVGRCDLLVMRRVAWAGYAIVIGTQTLSASVLLLGYDVIVAAYTDDLVVASLASKLLLFAAIFQFPDGLQMLSSGVLRGMKDTRVPM | failed
17 | RTALRTEYALRQEAQAARKHAEGILASISDGFIALDEQYRFTYVNAAAERLIASTAEELIGKVYWDVYPMMLGTKIEQAYRRAMTERVACEFESYHPPSKRWFELRVAPTNGKSISVYFRDITEQKKAEAALRDINEQLEEQV | failed
18 | RTFESVADLAAAAGEKVGQSDWVTITQEEVNLFADATGDHQWIHVDPERAAAGPFGTTIAHGFMTLALLPRLQHQMYTVKGVKLAINYGLNKVRFPAPVPVGSRVRATSSLVGVEDLGNGTVQATVSTTVEVEGSAKPACVAESIVRYVA | not failed
19 | RTHTGEKPYACSHCDKTFRQKQLLDMHFKRYHDPNFVPAAFVCSKCGKTFTRRNTMARHADNCAGPDGVEGEN | not failed
20 | RYTNILVPVDSSDAAQAAFTEAVNIAQRHQANLTALYVVDDSAYHTPALDPVLSELLDAEAAHAKDAMRQRQQFVATTSAPNLKTEISYGIPKHTIEDYAKQHPEIDLIVLGATGTNSPHRVAVGSTTSYVVDHAPCNVIVIR | not failed
21 | SAAPGPALCLFDVDGTLTAPRQKITKEMDDFLQKLRQKIKIGVVGGSDFEKVQEQLGNDVVEKYDYVFPENGLVAYKDGKLLCRQNIQSHLGEALIQDLINYCLSYIAKIKLPKKRGTFIEFRNGMLNVSPIGRSCSQEERIEFYELDKKENIRQKFVADLRKEFAGKGLTFSIGGQISFDVFPDGWDKRYCLRHVENDGYKTIYFFGDKTMPGGNDHEIFTDPRTMGYSVTAPEDTRRICELLFS | not failed
22 | SAAPVDLELKKAFTELQAKVIDTQQKVKLADIQIEQLNRTKKHAHLTDTEIMTLVDETNMYEGVGRMFILQSKEAIHSQLLEKQKIAEEKIKELEQKKSYLERSVKEAEDNIREMLMARRAQ | failed
23 | SADQIRQSVRHSLKDILMKRLTDSNLKVPEEKAAKVATKIEKELFSFFRDTDAKYKNKYRSLMFNLKDPKNNILFKKVLKGEVTPDHLIRMSPEELASKELAAWRRR | not failed
24 | SAFQAAAARLGAPVSHDFCAISLSDLMTPWEVIEKRIEAAASADFVTAVYNPRSRDRYWQIHRFRELFLRHRSPSTPVGIVRNVTRKDESVVLTTLGEFDPDSLDMFTMMLVGNSTTF | not failed
25 | SAKNAYTKLGTDDNAQLLDIRATADFRQVGSPNIKGLGKKAVSTVYNGEDKPGFLKKLSLKFKDPENTTLYILDKFDGNSELVAELVALNGFKSAYAIKDGAEGPRGWLNSSLPWIEPKKT | not failed
26 | SARHFGMALAPWDVMGGGRFQSKKAMEERRKNGEGIRSFVGASEQTDAEIKISEALAKIAEEHGTESVTAIAIAYVRSKAKNFFPSVEGGKIEDLKENIKALSIDLTPDNIKYLESIVPFDIGFPNNFIVLNSLTQKYGTNNV | not failed
